Measurements as given in paper PMC4216188.

Molecular target: I53A FLAG-Pen-2 (human) (UniProt Q9NZ42)
Assay: co-IP

Chain of UniProt Q9NZ42 (Q9NZ42 whole entry I53A): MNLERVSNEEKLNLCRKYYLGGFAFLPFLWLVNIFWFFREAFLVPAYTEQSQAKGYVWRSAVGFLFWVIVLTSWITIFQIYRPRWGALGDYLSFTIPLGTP

## presenilin 1 C-terminal fragment (PS1-CTF) (domain or fragment)
  PS1-CTF associated with immunoprecipitated Pen-2, percent of wt: < 40 % of wt
